# In patent US20240158515A1 (Regeneron, published 2024):
# T1: human FGFR3b expressed with a C-terminal myc-myc-hexahistidine tag (hFGFR3b.mmH) (human)
# T1 construct: also called REGN3152; monomeric human FGFR3b
# T1 chain: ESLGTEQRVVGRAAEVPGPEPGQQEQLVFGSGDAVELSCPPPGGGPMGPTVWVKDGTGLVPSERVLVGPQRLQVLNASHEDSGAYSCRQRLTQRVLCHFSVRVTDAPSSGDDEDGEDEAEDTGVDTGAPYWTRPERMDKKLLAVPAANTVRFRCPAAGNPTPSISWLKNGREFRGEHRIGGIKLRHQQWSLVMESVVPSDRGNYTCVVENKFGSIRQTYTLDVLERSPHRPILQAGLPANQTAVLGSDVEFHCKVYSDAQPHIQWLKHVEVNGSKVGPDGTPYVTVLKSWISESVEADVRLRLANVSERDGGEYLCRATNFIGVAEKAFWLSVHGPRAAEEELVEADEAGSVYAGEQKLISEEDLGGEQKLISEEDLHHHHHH
# T2: hFGFR3c-hFc (human, UniProt P22607 23-375)
# T2 construct: range 23-375; Bought (R&D Systems); also called dimeric human FGFR3c; R&D Systems 766-FR-050; not shown: Fc portion of human IgG1, amino acids Pro100-Lys330
# T2 sequence (looked up): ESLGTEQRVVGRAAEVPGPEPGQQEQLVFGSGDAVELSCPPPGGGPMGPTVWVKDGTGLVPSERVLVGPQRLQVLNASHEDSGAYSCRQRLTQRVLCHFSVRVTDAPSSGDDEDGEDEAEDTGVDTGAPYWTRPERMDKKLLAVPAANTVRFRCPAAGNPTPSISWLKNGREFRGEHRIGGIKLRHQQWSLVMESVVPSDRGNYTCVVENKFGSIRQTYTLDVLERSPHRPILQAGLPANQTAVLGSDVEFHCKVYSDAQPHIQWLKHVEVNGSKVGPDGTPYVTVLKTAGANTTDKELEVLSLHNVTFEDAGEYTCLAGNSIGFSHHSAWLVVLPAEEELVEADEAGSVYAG
# T3: human FGFR3b expressed with a C-terminal murine Fc tag (hFGFR3b.mFc) (human)
# T3 construct: called dimeric; also called REGN3153; dimeric human FGFR3b
# T3 chain: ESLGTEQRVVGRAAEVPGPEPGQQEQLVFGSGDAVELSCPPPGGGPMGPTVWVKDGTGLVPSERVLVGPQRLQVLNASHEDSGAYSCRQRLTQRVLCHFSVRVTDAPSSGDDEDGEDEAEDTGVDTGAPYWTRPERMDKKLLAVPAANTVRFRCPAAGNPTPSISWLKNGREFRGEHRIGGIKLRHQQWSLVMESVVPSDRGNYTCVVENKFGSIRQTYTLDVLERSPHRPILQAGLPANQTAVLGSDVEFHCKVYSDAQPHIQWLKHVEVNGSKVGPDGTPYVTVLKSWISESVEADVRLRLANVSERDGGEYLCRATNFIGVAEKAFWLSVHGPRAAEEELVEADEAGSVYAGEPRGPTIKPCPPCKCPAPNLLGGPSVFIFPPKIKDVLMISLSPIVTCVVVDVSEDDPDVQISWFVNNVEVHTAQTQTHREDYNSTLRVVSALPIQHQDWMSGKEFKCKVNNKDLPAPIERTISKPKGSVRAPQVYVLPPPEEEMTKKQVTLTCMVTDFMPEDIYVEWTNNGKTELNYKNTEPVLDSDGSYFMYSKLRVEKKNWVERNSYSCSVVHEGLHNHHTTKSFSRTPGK
# B1: REGN6331 (antibody, human IgG1, kappa, V domains shown)
# VH: EVQLVESGGGLVQPGGSLRLSCAASGFTFTSTGISWVRQAPGKGLEWVGRIYPTSGSTNYADSVKGRFTISADTSKNTAYLQMNSLRAEDTAVYYCARTYGIYDLYVDYTEYVMDYWGQGTLVTVSS
# VL: DIQMTQSPSSLSASVGDRVTITCRASQDVDTSLAWYKQKPGKAPKLLIYSASFLYSGVPSRFSGSGSGTDFTLTISSLQPEDFATYYCQQSTGHPQTFGQGTKVEIKR
# notes: hIgG1 comparator; also called COMP6331; anti-FGFR3-hIgG1 comparator
# What was measured:
# [1] = molecular target: full length human FGFR3b on BaF3 cells (BAF3/FGFR3b, ACL11991) (human, UniProt P22607 23-808); assay: cell-based or functional assay
# [2] = molecular target: T1, human FGFR3b expressed with a …; assay: SPR Biacore, mAb captured on anti-hFc, 25C
# [3] = molecular target: T4, human FGFR3c expressed with a C-terminal myc-myc-hexahistidine tag (hFGFR3c.mmH) (human, UniProt P22607 23-375); assay: SPR Biacore, mAb captured on anti-hFc, 25C
# T4 construct: also called REGN3155; monomeric human FGFR3c
# hFGFR3c-hFc [4] = molecular target: T2, hFGFR3c-hFc; assay: competition ELISA: 7 nM hFGFR3c-hFc binding to plate-coated hFGF basic
# Description: (§1) The fixed concentration of hFGFR3b or hFGFR3c proteins was selected to be near the concentration that generated 50% of the maximal binding (EC₅₀ value) to plate-adhered hFGF acidic or hFGF basic protein. […] The plates were then developed using TMB substrate solution (BD Biosciences) according to the manufacturer's recommended procedure and absorbance at 450 nm was measured on a Victor X5 plate reader.
# (§2) Binding data were analyzed using a sigmoidal (four-parameter logistic) dose-response model using GraphPad Prism software. […] Percent blocking of FGFR3 antibody at a given concentration was calculated based on the formula shown below.
# (§3) The ability of anti-FGFR3 antibodies to block human FGFR3b binding to hFGF acidic protein or hFGFR3c binding to hFGF acidic or hFGF basic proteins was evaluated using a sandwich ELISA-based blocking assay.
# [5] = molecular target: T3, human FGFR3b expressed with a …; assay: competition ELISA: 4 nM hFGFR3b-mFc binding to plate-coated hFGF acidic
# Description: as §1, §2, §3
# hFGFR3c-hFc [6] = molecular target: T2, hFGFR3c-hFc; assay: competition ELISA: 0.4 nM hFGFR3c-hFc binding to plate-coated hFGF acidic
# Description: as §1, §2, §3
binder,measurement,setting,value
B1,"IC50 [M], BaF3 proliferation (CellTiter-Glo) with 1 nM FGF1 + 5 ug/ml heparin",[1],5.79e-11 M
same,"Max Blocking (%), BaF3 proliferation (CellTiter-Glo) with 1 nM FGF1 + 5 ug/ml heparin",[1],97.6%
same,90 nM hFGFR3b.mmH Bind (RU),[2],58.4 RU
same,Kd,[2],0.697 nM
same,t½,[2],18.8 min
same,90 nM hFGFR3c.mmH Bind (RU),[3],39.6 RU
same,Kd,[3],2.42 nM
same,t½,[3],8.77 min
same,IC50,hFGFR3c-hFc [4],8.9 nM
same,% Blocking at 200 nM mAb,[5],99%
same,IC50,[5],1.5 nM
same,IC50,hFGFR3c-hFc [6],0.1 nM
